Assay results: patent publication US20170037110A1 (IMMATICS BIOTECHNOLOGIES, published 2017)

Biological target: T1, HLA-A*02:01 (human)
T1 construct: monomers captured on streptavidin plates; also called MHC class I
Experiment: UV peptide exchange ELISA
From the text: Candidate peptides for T cell based therapies according to the present invention were further tested for their MHC binding capacity (affinity). The individual peptide-MHC complexes were produced by UV-ligand exchange, where a UV-sensitive peptide is cleaved upon UV-irradiation, and exchanged with the peptide of interest as analyzed. Only peptide candidates that can effectively bind and stabilize the peptide-receptive MHC molecules prevent dissociation of the MHC complexes. To determine the yield of the exchange reaction, an ELISA was performed based on the detection of the light chain (p2m) of stabilized MHC complexes.
96 well MAXISorp plates (NUNC) were coated over night with 2 μg/ml streptavidin in PBS at room temperature, washed 4× and blocked for 1 h at 37° C. in 2% BSA containing blocking buffer. […] Peptide-MHC monomers of the UV-exchange reaction were diluted 100 fold in blocking buffer. Samples were incubated for 1h at 37° C., washed four times, incubated with 2 μg/ml HRP conjugated anti-p2m for 1h at 37° C., washed again and detected with TMB solution that is stopped with […]. Absorption was measured at 450 nm.

Binder | peptide exchange yield [%]
SLTETIEGV | 20 to 50
SLTIDGIYYV | ≥ 75
SLTIDGIRYV | 50 to 75
SLTEYLQNV | ≥ 75
